Results: doi:10.1101/2023.02.23.529489

Experiments:
Assay in all cases: flow cytometry on cells
[1] = biological target: CD45RABC ECD-GFP (extracellular domain and transmembrane region of CD45RABC, phosphatase domains replaced by GFP) (human)
[2] = biological target: CD45RO ECD-GFP (extracellular domain and transmembrane region of CD45RO, phosphatase domains replaced by GFP) (human)
[3] = biological target: full-length human CD45RABC (human) (UniProt P08575)
[4] = biological target: full-length human CD45RO (human) (UniProt P08575)

Substance: sec49K-His (recombinant N-terminal ectodomain of HAdV-D64 E3/49K, residues 20-353, from insect cells) (domain or fragment)
- EC50 [1]: 0.55 nM
- EC50 [2]: 0.54 nM
- EC50 [3]: 1.26 nM
- EC50 [4]: 1.35 nM
